Laboratory results reported in paper PMC11588662.

What was measured:
[1] = target: CD33 on human AML cells (Kasumi-1, HL-60, MOLM14) (human (endogenous in Kasumi-1, HL-60, MOLM14)) (UniProt P20138); test: flow cytometry on cells; MOLM14 GFP^-CD117^midCD33^+ cells stained with 10 nM of either Db-FM or both (10 nM each); fluorescence (MFI)
[2] = target: CD33 on human AML cells (Kasumi-1, HL-60, MOLM14) (human (endogenous in Kasumi-1, HL-60, MOLM14)) (UniProt P20138); test: flow cytometry on cells; 50 ug CD117 or CD33 Db-FM injected i.v. into NSG mice engrafted with MOLM14-CD117^highGFP^+Luc^+ cells; femora collected after 1 and 6 h; MFI (APC anti-FITC) interpolated on an ex vivo titration of Db-FM on cells of a control mouse

CD33 on human AML cells (Kasumi-1, HL-60, MOLM14) (human (endogenous in Kasumi-1, HL-60, MOLM14)), sequence (P20138 18-364): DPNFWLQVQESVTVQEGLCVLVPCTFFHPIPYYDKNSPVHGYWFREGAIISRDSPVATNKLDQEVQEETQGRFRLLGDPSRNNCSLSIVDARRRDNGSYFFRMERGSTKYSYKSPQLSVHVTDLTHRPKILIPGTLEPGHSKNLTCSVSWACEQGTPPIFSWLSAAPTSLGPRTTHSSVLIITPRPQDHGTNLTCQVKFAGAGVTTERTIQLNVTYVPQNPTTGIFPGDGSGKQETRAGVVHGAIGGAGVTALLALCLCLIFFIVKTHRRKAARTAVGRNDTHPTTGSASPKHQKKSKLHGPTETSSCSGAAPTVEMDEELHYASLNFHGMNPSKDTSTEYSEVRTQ

MFI [1]: 942
interpolated on-tumor Db-FM concentration 1 h after injection [2]: 0.99 nM
interpolated on-tumor Db-FM concentration 6 h after injection [2]: 0.22 nM
Substance: CD33 Db-FM (fluorescein-maleimide-labelled anti-CD33 diabody, clone SGN-33)
